Consider one molecule from publication PMC10756261 (Proceedings of the National Academy of Sciences of the …, 2023).

For this assay, the target named is T1, GST-RPA1a (Arabidopsis thaliana, UniProt Q9SKI4 1-640).
T1 sequence (looked up): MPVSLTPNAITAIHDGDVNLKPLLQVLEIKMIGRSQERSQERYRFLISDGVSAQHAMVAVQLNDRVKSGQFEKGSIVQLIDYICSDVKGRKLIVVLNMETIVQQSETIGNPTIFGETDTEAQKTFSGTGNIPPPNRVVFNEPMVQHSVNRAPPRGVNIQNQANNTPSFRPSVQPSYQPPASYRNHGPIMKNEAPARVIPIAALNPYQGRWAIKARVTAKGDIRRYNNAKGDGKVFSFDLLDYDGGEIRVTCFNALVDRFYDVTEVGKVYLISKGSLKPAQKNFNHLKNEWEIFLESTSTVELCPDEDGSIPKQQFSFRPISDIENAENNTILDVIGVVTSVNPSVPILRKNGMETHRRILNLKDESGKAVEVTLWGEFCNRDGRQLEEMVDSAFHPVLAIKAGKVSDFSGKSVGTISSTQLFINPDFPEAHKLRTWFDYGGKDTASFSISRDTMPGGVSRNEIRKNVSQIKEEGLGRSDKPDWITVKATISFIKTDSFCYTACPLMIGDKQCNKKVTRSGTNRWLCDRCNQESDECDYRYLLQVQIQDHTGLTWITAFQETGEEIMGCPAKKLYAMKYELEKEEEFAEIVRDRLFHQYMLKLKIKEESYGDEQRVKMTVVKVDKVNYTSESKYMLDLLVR
Nature of the assay: pull-down.

B1: His-Sumo-HEI10 (natural protein, Arabidopsis thaliana, UniProt F4HRI2 1-304, looked up)
chain: MRCNACWRDLEGRAISTTCGHLLCTEDASKILSNDGACPICDQVLSKSLMKPVDINPNEEWINMAMAGISPQILMKSAYRSVMFYIAQRDLEMQYKMNRVVAQCRQKCEGMQAKFSEKMEQVHTAYQKMGKRCQMMEQEVENLTKDKQELQEKFSEKSRQKRKLDEMYDQLRSEYESVKRTAIQPANNFYPRHQEPDFFSNPAVNMMENRETIRKDRSFFSPATPGPKDEIWPARQNSSNSGPFDISTDSPAIPSDLGNRRAGRGHPVYGGGGTANPQSTLRNLILSPIKRSQLSRSRPQLFTL
B1: the binding result is “binds”.
